Test results published in a protein production outcome set (Wang et al. 2014).

experiment: label from the status in PepcDB records

Row | Sequence | protein production
1 | MRLLVSCVDSGSIKEVLCNIGTDTSVQSALQPFHVAPHLAEGLKAYVDRMWVISEDEAILARNSGVVELVKISKHLKENEALQVDPKGESKNEKSLSDDLPKFDISEFEITSSVSDLFDDAKLESLSSKSVKRTKLVDGFVTLCPIKKDSSNNTFVAATKSGLLHIIKKGEDKKLIKLASLGLKAPVEFLQLYDLEDTDTDKYIFAYGGEENLIKLVEIDSSFQSLKQIWEAKNVKNDRLDMRVPVWPMALRFLEPSPGKTEKGKLNYQFAAITRWSHLTKYSTQHGRKPFAQIDLLPNREPLSQMEVFDAKGENVVSSLGNFQSETFNELNVITTDYKKNVFKFDGNGRMLGKVGRDDITGSSTYIHVHDGKYLLQGGLDRYVRIFDIKTNKMLVKVYVGSRINFIVMLDDVEIEMPLSPSAKAAKGKQKRKVTELEEDADELWNKLEGKVAASKASKKSKI | not failed
2 | MRLMDILEILYYKKGKEFGILEKKMKEIFNETGVSLEPVNSELIGRIFLKISVLEEGEEVPSFAIKALTPKENAVDLPLGDWTDLKNVFVEEIDYLDSYGDMKILSEKNWYKIYVPYSSVKKKNRNELVEEFMKYFFESKGWNPGEYTFSVQEIDNLF | not failed
3 | MRLPLNQRVAILLHEGTTGTIGKTGLALLRYSEAPIVAVIDRNCAGQSLREITGIYRYVPIVKSVEAALEYKPQVLVIGIAPKGGGIPDDYWIELKTALQAGMSLVNGLHTPLANIPDLNALLQPGQLIWDVRKEPANLDVASGAARTLPCRRVLTVGTDMAIGKMSTSLELHWAAKLRGWRSKFLATGQTGVMLEGDGVALDAVRVDFAAGAVEQMVMRYGKNYDILHIEGQGSLLHPGSTATLPLIRGSQPTQLVLVHRAGQTHNGNNPHVPIPPLPEVIRLYETVASGGGAFGTVPVVGIALNTAHLDEYAAKEAIAHTIAETGLPCTDVVRFGADVLLDAVMQN | not failed
4 | MRLRHLSDPDSLPALDKSFAIERPALGLAPDAPPVRILLLYGSLRARSFSRLAVEEAARLLQFFGAETRIFDPSDLPLPDQVQSDDHPAVKELRALSEWSEGQVWCSPERHGQITSVMKAQIDHLPLEMAGIRPTQGRTLAVMQVSGGSQSFNAVNTLRLLGRWMRMFTIPNQSSIAKAFQEFDAAGRMKPSPYYDRIADVMEELVRFTALVRPHREALTDRYSERKAAGHVIDEATDLSSIAIAPQPLPESETS | not failed
5 | MRLSELGTGEKGVIVKVLGHGGFRKRIVEMGFIKGKTVEVLLNAPLKDPIKYKVLGYEISLRRQEAEMIEVVSEEEAKKQAEKAVYHEGLPEDVSVKEEDMKRLALGKRRTINVALVGNPNSGKTSLFNLASGAHEHVGNYSGVTVDAKEGYFDFEGYHFRIVDLPGTYSLSAYTPEEIYVRRHIVDETPDVIINVVDSSNLERNLYLTTQLIDMNVRMVVALNIYDELESSGNTLDYHLLSKLFGVPMVPTVSKKNRGLDTLFHVVINLYEGVDFFDKQGNMNPEVLKDLTEWHDSLEDRKNHEEEHLEDYVREHKRKGRVFRHIHINHGPDLEKAIDAVKEEVSKNEFIRHKYSTRFLSIKLLENDPDIESFVRTLPNAGEIFRIRDKMAKRVQETMNEDCESAITDAKYGFISGALKETFTDNHLEQAQTTKVLDAIVTHRIWGYPIFFLFMYLMFEGTFVLGEYPMMGIEWLVGQIGDLIRNNMSEGPLKDMLVDGIVGGVGGVIVFLPNILILYFCISLMEDSGYMARAAFIMDKIMHKMGLHGKSFIPLIMGFGCNVPAIMASRTIENRKSRLITMLINPLMSCSARLPIYLLLVGAFFPNNASLVLLSIYAIGIFLAVLLARLFSKFLVKGDDTPFVMELPPYRMPTAKSIFRHTWEKGAQYLKKMGGIIMIASIIIWFLGYYPNHEAYETVAEQQENSYIGQLGRAIEPVIKPMGFDWKLGIGLISGVGAKELVVSTLGVLYVDDPEADEASLAERIPITPLVAFCYMLFVLIYFPCIAALAAIKQESGSWKWALFAACYTTGLAWLVAFSVYQIGGMFV | failed
6 | MRLSRIKLPKINSLYGRIFAIFWFTMLLVLIAVLSLPHLDPRKARDIPDEHYQRIIETRDAIQNKYSKETDLGRILFRVEGNRAGKHDPRPRVFFSDYNGNVLTTDKRSNFQLRAMQNFVTSIEDYNKPKQRLYGRYMIAGPVPIVLADSELLMYVGFKWNEPPPLLLRLFDHPFQLLLAVMLVSTPLLLWLAWALSQPARRLEAAAQRVAKGEFVIDPNLEKGTAEFRQAGSSFNQMVEAVNQMISGQQRLLSDISHELRSPLTRLRMASALATRKQGDSPELVRIDTEAQRLEQMISELLELSRMQVNSHMTRETQPIESLWEEIIKDAQFEAEQMGKTLRYSEIPERHISGNPKLLMSAVENIIRNAIYYGKDEVQIDIQDKTDTLTITVDDNGDGVPDEELEAIFRPFYRVSTARDRHSGGTGLGLTITESAIRQHSGTIVASRSPLGGLRVSITLPLVKVGK | failed
7 | MRLTTLWQNRSPGDRHLSTYFCFAAVRLLLVFVPQLGYVHPDEFFQSVEVMTGDHFRLEHTRTWEFNNSLPVRSIVLPFALLRIPWSFYEFVAECLKAWWQLELLGTYAYVVFPRLIYTLISFSNDYCLFRICRLYGLRFEIRLLAMGSSWILLVFGTRTFSNSLEMAMCSWLLCLVSECMLRTNTVVYKKEFLEEKYDKAESISERVRIWKLKNSLPAHNLQHLMAMSTICVAGVFNRPTFLLFGAPMVFFWLLRGMGTRSITFRDFNLRIALFCLCALPALVLFIFCDSLYYQHLTLGELHMMHLSIDNFVFTPWNFIKANLDSAQTASHGVHPCYVHLMVNMPMLFNVLALASLGAFAQLLLRFFRAEYQVLPRFQSIVSLMSGAIFVPLFFLSLINHQEPRFLLPVTFPLILLHAPKLITGFSAKYPFQKDHPLLRLFYDKLLSSKASGPYLLKIWYVSNVALTLFFGFIHQAGVYPLAADISHVIATKPAATHVHLITSHIYSLPLHLINIPSSRVLHFNRLTHQRYRRPRDFYMYEYGGLPLDSLLQKVKLISGSCEVKKSGPSRRRYKLYLAIPASLSADLHEALVHSNASSYLNFELLKVFYPHLSTEAFPHLQGRHPCDVDAPHWAHDDLRGTCSAEQLPAFSFAYLNKQFSSFVHQLGLALYEIDVTRNKPRYVSLAYSGCSPTKGYFLLFIQFLICLALCIAAAQAGFIASPVTTYAAAPAYAASYAAPVAYSAPVATYAAAAPAYSTYAAAAPAYSTYAAAAPAYSTYAAAAPAYTASVYSAPAYTAPVTTYAAGAAYAAPVTTYSAPAIVSPILKKK | failed
8 | MRLVADSACDIKELRGMVFKAVPLTISTDNEEFCDDGQLDIHRMLDILEKHKGRSYTACPGIDAWLEAFGDDDEIFVVTITAGMSGTYNSAMAARAVYLEEHPQAKVRVIDSKSTGPQMRIILEQLQQMIEEGKKFEEIDGAIDAYMQKTRLFCSLKSLHNLAQNGRVSKVVASAAEVLGISVIGTASSHGTLEAIGKCRGDKKLLVKLQALLDDAGYEGGKLRICHVENEALADKIADMIKQAYGTTDVCVYKAGGLCSYYAERGGIILSCETK | not failed
9 | MRLVEIGRFGAPYALKGGLRFRGEPVVLHLERVYVEGHGWRAIEDLYRVGEELVVHLAGVTDRTLAEALVGLRVYAEVADLPPLEEGRYYYFALIGLPVYVEGRQVGEVVDILDAGAQDVLIIRGVGERLRDRAERLVPLQAPYVRVEEGGIHVDPIPGLFDLEHHHHHH | failed
10 | MRLYTRTGDKGKTSVIGGRLAKDDTRVVAYGTTDELNSFVGLAITQLDENTFADIRGELFKIQHELFDCGGDLAMLKVKEDRPYKAKQEIVDFLEQRIDAYIKEAPELERFILPGGSEAAASLHVCRTIARRAERYVVRLQQEGEINPIVLKYLNRLSDYFFAVARVVNSRLQVPDVEYERSAIVFREGKRKEDKK | not failed
11 | MRMAATAPAFPELEGRHPCFSTTAEGHARAARLHLPVSPGCNIDCAFCIRDFNRRDQRPGVATRLLTPEQAVAIVARALELCPSINVVGIAGPGDPLATPHALQTFALVRERWPELVLCLSTNGLMLPDRIDEIAGLGISTLTVTVNAVDPQIQAQVTPKIAWQRKRLNGVVAGERLIANQLEGIARAAAHGLTVKVNTVLIPTVNDHHIETIAERVAAAGANLINIIPLIPQHGFAHLKPPGMLMRYAARTAAEKYLRVFTHCQRCRADACGIPGVSDYAQQLYGDDIVAEPTFSHG | failed
12 | MRMFFSGLMESLKENKITFLWVLLFFLVGIVLGSYTVYYMSDFNRVEITTYFNNFLEFLGGNSVSYTSILVDSIKSILPMVAIIVLLGYTAVGTPIILMMDLAKGYVIGFTFSLIVSMLGSKGVMLVLSGLMLQNLIFIPIIMLISVLAIRHSVTKLKMGVSRDRVKLDVSRAYLNFQGLLSLIIISGILIETYISPNLIRLVISR | failed
13 | MRMGLKADSWIKKMSLEHGMISPFCEKQVGKNVISYGLSSYGYDIRVGSEFMLFDNKNALIDPKNFDPNNATKIDASKEGYFILPANAFALAHTIEYFKMPKDTLAICLGKSTYARCGIIVNVTPFEPEFEGYITIEISNTTNLPAKVYANEGIAQVVFLQGDEMCEQSYKDRGGKYQGQVGITLPKILK | failed
14 | MRMILMFDMPTETAEERKAYRKFRKFLLSEGFIMHQFSVYSKLLLNNTANNAMIGRLKVNNPKKGNITLLTVTEKQFARMVYLHGERNTSVANSDSRLVFLGDSYDQDLEHHHHHH | failed
15 | MRMNIRVALPQAQVHWCRGWLQAAHADALMQALLDQVQWEVHRIRMFGRVVDSPRLSSWIGDADASYRYSGTQFAPQPWLEALQPVRTRLQDETGSPFNSVLVNRYRSGADAMGWHSDDEPELGAQPVIASLSLGAARRFAFKHRHDAALKQTLELGHGDLLLMGGDTQRHYKHALPRTVKPVGERINLTFRQIAVRVSQRLEHHHHHH | failed
16 | MRNEAFDILKDIPKWKLIFWLLLAITLTPITELIIYRLVTSVIESSLTLTELGKEFIRIFGYEKYKGIKESLWMMIVSYLFLFSIFSSYLYIFYRHEKKLYYETCIKKMIEEIRYIANGNFNHKVSIVNHNYLEELAIGVNEIVEQLKVSIDEERQAEQAKSELITNVSHDLRTPLTSIVGYVNLIHHDNYRDEVELRYYIQVIYDKVTRLNALMNDLFEYTRVQNKELSLYSVPIDIVELLGQLTVQFRIQVQEANIECRPSFPSQKLMVLADGDKLVRVFENLIINAIAYGSEGRYIDLTAYESNNMITIDITNYGQPIPSTDLPHIFERFYRVEKSRSTNTGGSGLGLAIAKSIVELHKGTIEVYSDDEKTTFTVKLLPYKC | failed
17 | MRNHPLGIYEKALAKDLSWPERLVLAKSCGFDFVEMSVDETDERLSRLEWTSAQRASLVSAMLESGVAIPSMCLSAHRRFPFGSRDEAVRQRAREIMTKAIRLARDLGIRTIQLAGYDVYYEEHDEGTRQRFAEGLAWAVEQAAAAQVMLAVEIMDTAFMNSISKWKKWDEMLSSPWFTVYPDVGNLSAWGNDVTAELKLGIDRIAAIHLKDTLPVTGDSPGQFRDVPFGEGCVDFVGIFKTLHELNYRGSFLIEMWTEKSSEPVLEIIQARRWIESRMQEGGFTC | failed
18 | MRNIYDLANELERGIRALPEYKNLVEKKEAIATDAEASALFKEFTDFQEDFYAKMQAGTMPTAEEQAAVQELGQKVEANALLKEYLTAQQSLSVYLNDIERIIFKPLQELNN | failed
19 | MRNIYSIYKEHYKALISLGLPIVIGQIGVIVLGFADTLMIGHHSTIELGAASFVNNVFNLVIIFSTGFSYGLTPIVGGLYGTHQYASAGQALRNSLLANLLVAFLLTIGMTVLYFNVGNLGQPEELIPLIKPYYLVLLASLVFVMLFNGFKQFTDGITDTKTAMWILLGGNVLNIIGNYILIYGKLGLPEMGLLGAGISTLFSRIMMVVVFIIVFMRSPRFLRFKLGFYRLGWSKAIFGRLNSLGWPIAFQMGMETASFSLSAVMIGWLGTIALASHQVMLAISQFTFMMYYGMGAAVAVRVSNFNGQGDILNVRRSAYAGFHLMMALGVVLSSIVFLCRNYLGGWFTDSTEVAAMVTSLILPFLVYQFGDGLQITFANALRGISDVKLMMLIAFIAYFLISLPVGYFCGFVLEWGIIGVWMAFPFGLTSAGLMLWWRFHHKTKLPPSIQNS | not failed
